Measurements as given in the supplement of paper PMC7125110.
± gives the standard error. Fewer inactive variants are shown than the library holds.

B1: glmS ribozyme (parent)
chain: AUAAAAGCGCCAGAACUACAGAAAUGUAGUUGACGAGGAGGAGGUUUAUCGAAUUUUCGGCGGAUGCCUCCAAA

How the values were obtained:
Conditions in all cases: with glucosamine-6-phosphate
glucosamine-6-phosphate [1] = variants of: B1; experiment: self-cleavage kobs at 40 uM GlcN6P; higher = faster cleavage; RNA array
Summary of the method: (§1)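 On sequenced MiSeq chips, barcoded ribozyme variants were made in situ by E. coli RNA polymerase and followed at 37 °C through a hybridised Cy3 probe. Glucosamine-6-phosphate was flowed in at 40 μM to 10 mM in HEPES/KCl/Mg(OAc)2 buffer. Exponential fits to normalised per-tile medians gave kobs, and weighted Michaelis–Menten fits gave kcat and KM.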

glucosamine-6-phosphate [2] = variants of: B1; experiment: self-cleavage kobs at 10000 uM GlcN6P; higher = faster cleavage; RNA array
Summary of the method: as §1

glucosamine-6-phosphate [3] = variants of: B1; experiment: self-cleavage kobs at 640 uM GlcN6P; higher = faster cleavage; RNA array
Summary of the method: as §1

glucosamine-6-phosphate [4] = variants of: B1; experiment: self-cleavage kobs at 2500 uM GlcN6P; higher = faster cleavage; RNA array
Summary of the method: as §1

glucosamine-6-phosphate [5] = variants of: B1; experiment: self-cleavage kobs at 160 uM GlcN6P; higher = faster cleavage; RNA array
Summary of the method: as §1

Variant | self-cleavage kobs at 40 uM GlcN6P (glucosamine-6-phosphate [1]) [s⁻¹] | self-cleavage kobs at 10000 uM GlcN6P (glucosamine-6-phosphate [2]) [s⁻¹] | self-cleavage kobs at 640 uM GlcN6P (glucosamine-6-phosphate [3]) [s⁻¹] | self-cleavage kobs at 2500 uM GlcN6P (glucosamine-6-phosphate [4]) [s⁻¹] | self-cleavage kobs at 160 uM GlcN6P (glucosamine-6-phosphate [5]) [s⁻¹]
G13A G60U A64C | < 1e-05 | – | – | – | –
G13U G32U A36G G38C U54G | < 1e-05 | – | – | – | –
U30C G40C U49G G51A | < 1e-05 | < 1e-05 | – | – | –
A15C A36U | < 1e-05 | < 1e-05 | – | – | –
A14G U47G C58G C71U | 4.07e-05 ± 2e-05 | 9.43e-05 ± 1.6e-05 | – | – | –
G7C G29C | < 1e-05 | < 1e-05 | < 1e-05 | < 1e-05 | –
G59C | < 1e-05 | < 1e-05 | < 1e-05 | – | < 1e-05
G40U G51A U54A A64U | < 1e-05 | – | – | – | –
A15C C61A | < 1e-05 | < 1e-05 | – | – | –
C10G A36G | < 1e-05 | < 1e-05 | < 1e-05 | – | –
U31G U69A | 2.79e-05 ± 1.1e-05 | 0.000103 ± 1.4e-05 | 0.00012 ± 3.2e-05 | 0.000288 ± 7.4e-05 | 9.26e-05 ± 3.7e-05
A6G C70U | < 1e-05 | – | – | – | < 1e-05
C10A U47A | < 1e-05 | – | < 1e-05 | – | < 1e-05
U45G C50A | < 1e-05 | – | – | – | –
U56G G62C | < 1e-05 | – | – | < 1e-05 | < 1e-05
C8A G66C | < 1e-05 | – | – | < 1e-05 | –
G29A C34A G40U G41C G44U U49G C50A C71U | < 1e-05 | < 1e-05 | – | – | –
G43U G44A | < 1e-05 | < 1e-05 | < 1e-05 | < 1e-05 | < 1e-05
G35C C71G | < 1e-05 | – | < 1e-05 | – | < 1e-05
G40U C50A G66U | < 1e-05 | < 1e-05 | < 1e-05 | < 1e-05 | –
U46G A48U C68U | < 1e-05 | – | – | – | –
A42G G63U | < 1e-05 | – | < 1e-05 | < 1e-05 | < 1e-05
G13U C50G C61G G62A U65G C68U | 9.2e-05 ± 3.1e-05 | 3.93e-05 ± 1.7e-05 | – | – | –
A12G C16A A36G U69C | < 1e-05 | – | – | – | –
C11U G13C C16A U49A | < 1e-05 | – | < 1e-05 | – | < 1e-05
G7U G35C U55G A64C | < 1e-05 | – | – | – | –
